Experimental data reported in patent publication US20170101454A1 (Novo Nordisk, published 2017).
Starred links: 1 amine or outer side, 2 acyl side, 3 side chain; linkers in the order of their positions; H or OH if unused. Non-standard residues stand in square brackets, D forms with d. Groups on a side chain read outwards from the residue. No end group written: not given here. *: point of attachment. C18 diacid = O=C(O)CCCCCCCCCCCCCCCCC(=O)*; γGlu = O=C(O)[C@H](CCC(=O)[*:2])N[*:1]; Ac4c = NC1(C(=O)O)CCC1; AEEA = NCCOCCOCC(=O)O; Aib = CC(C)(N)C(=O)O

What was measured:
human GLP-1 receptor [1] = target: T1, human GLP-1 receptor (human, UniProt P43220 24-463); test: cell-based or functional assay
human glucagon receptor [2] = target: T2, human glucagon receptor (human, UniProt P47871 26-477); test: cell-based or functional assay
human GLP-1 receptor [3] = target: T1, human GLP-1 receptor; test: displacement of [125I]-GLP-1-(7-36)NH2 from BHK membranes with human GLP-1R, SPA, no serum albumin
human glucagon receptor [4] = target: T2, human glucagon receptor; test: displacement of [125I]-glucagon from BHK membranes with human glucagon receptor, SPA, no serum albumin

T2 sequence (P47871 26-477): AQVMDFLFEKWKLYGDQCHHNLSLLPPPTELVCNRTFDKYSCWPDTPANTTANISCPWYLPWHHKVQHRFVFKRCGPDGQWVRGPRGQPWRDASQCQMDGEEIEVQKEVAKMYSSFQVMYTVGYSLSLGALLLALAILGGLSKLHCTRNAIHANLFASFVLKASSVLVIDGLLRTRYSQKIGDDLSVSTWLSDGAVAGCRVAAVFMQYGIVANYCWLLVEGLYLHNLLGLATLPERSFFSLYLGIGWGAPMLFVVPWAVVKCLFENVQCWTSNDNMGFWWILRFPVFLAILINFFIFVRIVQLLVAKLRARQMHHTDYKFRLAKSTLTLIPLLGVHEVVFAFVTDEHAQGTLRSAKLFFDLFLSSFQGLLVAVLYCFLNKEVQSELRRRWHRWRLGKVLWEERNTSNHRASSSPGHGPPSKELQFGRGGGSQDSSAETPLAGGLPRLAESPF

GLP-1R EC50 (pM) [Assay (I)(a)], CRE luciferase reporter, BHK cells (human GLP-1 receptor [1]) [pM]	GlucagonR EC50 (pM), [Assay (I)(b)], CRE luciferase reporter, BHK cells (human glucagon receptor [2]) [pM]	IC50 (human GLP-1 receptor [3]) [nM]	IC50 (human glucagon receptor [4]) [nM]	Binder
3	748	0.1	42.4	H[Aib]QGTFTSDVSKYLESRRAQDFVQWLIK([AEEA-AEEA-γGlu-γGlu-γGlu-C18 diacid])T-NH2 (N-terminus assumed; SMILES CC[C@H](C)[C@H](NC(=O)[C@H](CC(C)C)NC(=O)[C@H](Cc1c[nH]c2ccccc12)NC(=O)[C@H](CCC(N)=O)NC(=O)[C@@H](NC(=O)[C@H](Cc1ccccc1)NC(=O)[C@H](CC(=O)O)NC(=O)[C@H](CCC(N)=O)NC(=O)[C@H](C)NC(=O)[C@H](CCCNC(=N)N)NC(=O)[C@H](CCCNC(=N)N)NC(=O)[C@H](CO)NC(=O)[C@H](CCC(=O)O)NC(=O)[C@H](CC(C)C)NC(=O)[C@H](Cc1ccc(O)cc1)NC(=O)[C@H](CCCCN)NC(=O)[C@H](CO)NC(=O)[C@@H](NC(=O)[C@H](CC(=O)O)NC(=O)[C@H](CO)NC(=O)[C@@H](NC(=O)[C@H](Cc1ccccc1)NC(=O)[C@@H](NC(=O)CNC(=O)[C@H](CCC(N)=O)NC(=O)C(C)(C)NC(=O)[C@@H](N)Cc1c[nH]cn1)[C@@H](C)O)[C@@H](C)O)C(C)C)C(C)C)C(=O)N[C@@H](CCCCNC(=O)COCCOCCNC(=O)COCCOCCNC(=O)CC[C@H](NC(=O)CC[C@H](NC(=O)CC[C@H](NC(=O)CCCCCCCCCCCCCCCCC(=O)O)C(=O)O)C(=O)O)C(=O)O)C(=O)N[C@H](C(N)=O)[C@@H](C)O, also called Chem. 10; Chem 10)
4	98	1.5	6.6	HXQGTFTSDYSRYLESRRARDFVQWLIKT (Aib at position 2; epsilon-N of Lys28 acylated with the substituent given in the name (17-carboxyheptadecanoyl-2xgGlu-Ado-gGlu-Ado-gGlu-Ado-gGlu-); C-terminal amide, also called Chem. 37; Chem 37)
2	12	0.3	2.7	H[Ac4c]QGTFTSDLSKYLESRRAQEFVQWLIK([γGlu-AEEA-AEEA-γGlu-γGlu-C18 diacid])T-NH2 (N-terminus assumed; SMILES CC[C@H](C)[C@H](NC(=O)[C@H](CC(C)C)NC(=O)[C@H](Cc1c[nH]c2ccccc12)NC(=O)[C@H](CCC(N)=O)NC(=O)[C@@H](NC(=O)[C@H](Cc1ccccc1)NC(=O)[C@H](CCC(=O)O)NC(=O)[C@H](CCC(N)=O)NC(=O)[C@H](C)NC(=O)[C@H](CCCNC(=N)N)NC(=O)[C@H](CCCNC(=N)N)NC(=O)[C@H](CO)NC(=O)[C@H](CCC(=O)O)NC(=O)[C@H](CC(C)C)NC(=O)[C@H](Cc1ccc(O)cc1)NC(=O)[C@H](CCCCN)NC(=O)[C@H](CO)NC(=O)[C@H](CC(C)C)NC(=O)[C@H](CC(=O)O)NC(=O)[C@H](CO)NC(=O)[C@@H](NC(=O)[C@H](Cc1ccccc1)NC(=O)[C@@H](NC(=O)CNC(=O)[C@H](CCC(N)=O)NC(=O)C1(NC(=O)[C@@H](N)Cc2c[nH]cn2)CCC1)[C@@H](C)O)[C@@H](C)O)C(C)C)C(=O)N[C@@H](CCCCNC(=O)CC[C@H](NC(=O)COCCOCCNC(=O)COCCOCCNC(=O)CC[C@H](NC(=O)CC[C@H](NC(=O)CCCCCCCCCCCCCCCCC(=O)O)C(=O)O)C(=O)O)C(=O)O)C(=O)N[C@H](C(N)=O)[C@@H](C)O, also called Chem. 38; Chem 38)
2	7	0.3	0.9	H[Aib]QGTFTSDYSKYLDARRARDFVAWLIK([γGlu-γGlu-AEEA-AEEA-γGlu-C18 diacid])T-NH2 (N-terminus assumed; SMILES CC[C@H](C)[C@H](NC(=O)[C@H](CC(C)C)NC(=O)[C@H](Cc1c[nH]c2ccccc12)NC(=O)[C@H](C)NC(=O)[C@@H](NC(=O)[C@H](Cc1ccccc1)NC(=O)[C@H](CC(=O)O)NC(=O)[C@H](CCCNC(=N)N)NC(=O)[C@H](C)NC(=O)[C@H](CCCNC(=N)N)NC(=O)[C@H](CCCNC(=N)N)NC(=O)[C@H](C)NC(=O)[C@H](CC(=O)O)NC(=O)[C@H](CC(C)C)NC(=O)[C@H](Cc1ccc(O)cc1)NC(=O)[C@H](CCCCN)NC(=O)[C@H](CO)NC(=O)[C@H](Cc1ccc(O)cc1)NC(=O)[C@H](CC(=O)O)NC(=O)[C@H](CO)NC(=O)[C@@H](NC(=O)[C@H](Cc1ccccc1)NC(=O)[C@@H](NC(=O)CNC(=O)[C@H](CCC(N)=O)NC(=O)C(C)(C)NC(=O)[C@@H](N)Cc1c[nH]cn1)[C@@H](C)O)[C@@H](C)O)C(C)C)C(=O)N[C@@H](CCCCNC(=O)CC[C@H](NC(=O)CC[C@H](NC(=O)COCCOCCNC(=O)COCCOCCNC(=O)CC[C@H](NC(=O)CCCCCCCCCCCCCCCCC(=O)O)C(=O)O)C(=O)O)C(=O)O)C(=O)N[C@H](C(N)=O)[C@@H](C)O, also called Chem. 32; Chem 32)
4	22	1.5	6.5	HXQGTFTSDYSRYLESRRARDFVQWLIKT (Acb at position 2; epsilon-N of Lys28 acylated with the substituent given in the name (17-carboxyheptadecanoyl-2xgGlu-Ado-gGlu-Ado-gGlu-Ado-gGlu-); C-terminal amide, also called Chem. 36; Chem 36)
1	24	0.1	4.6	H[Aib]QGTFTSDVSKYLDARRAQDFVQWLIK([γGlu-AEEA-AEEA-γGlu-γGlu-C18 diacid])T-NH2 (N-terminus assumed; SMILES CC[C@H](C)[C@H](NC(=O)[C@H](CC(C)C)NC(=O)[C@H](Cc1c[nH]c2ccccc12)NC(=O)[C@H](CCC(N)=O)NC(=O)[C@@H](NC(=O)[C@H](Cc1ccccc1)NC(=O)[C@H](CC(=O)O)NC(=O)[C@H](CCC(N)=O)NC(=O)[C@H](C)NC(=O)[C@H](CCCNC(=N)N)NC(=O)[C@H](CCCNC(=N)N)NC(=O)[C@H](C)NC(=O)[C@H](CC(=O)O)NC(=O)[C@H](CC(C)C)NC(=O)[C@H](Cc1ccc(O)cc1)NC(=O)[C@H](CCCCN)NC(=O)[C@H](CO)NC(=O)[C@@H](NC(=O)[C@H](CC(=O)O)NC(=O)[C@H](CO)NC(=O)[C@@H](NC(=O)[C@H](Cc1ccccc1)NC(=O)[C@@H](NC(=O)CNC(=O)[C@H](CCC(N)=O)NC(=O)C(C)(C)NC(=O)[C@@H](N)Cc1c[nH]cn1)[C@@H](C)O)[C@@H](C)O)C(C)C)C(C)C)C(=O)N[C@@H](CCCCNC(=O)CC[C@H](NC(=O)COCCOCCNC(=O)COCCOCCNC(=O)CC[C@H](NC(=O)CC[C@H](NC(=O)CCCCCCCCCCCCCCCCC(=O)O)C(=O)O)C(=O)O)C(=O)O)C(=O)N[C@H](C(N)=O)[C@@H](C)O, also called Chem. 39; Chem 39)
2	245	0.1	31.6	H[Aib]QGTFTSDLSKYLESRRARDFVQWLIK([AEEA-AEEA-γGlu-γGlu-γGlu-C18 diacid])T-NH2 (N-terminus assumed; SMILES CC[C@H](C)[C@H](NC(=O)[C@H](CC(C)C)NC(=O)[C@H](Cc1c[nH]c2ccccc12)NC(=O)[C@H](CCC(N)=O)NC(=O)[C@@H](NC(=O)[C@H](Cc1ccccc1)NC(=O)[C@H](CC(=O)O)NC(=O)[C@H](CCCNC(=N)N)NC(=O)[C@H](C)NC(=O)[C@H](CCCNC(=N)N)NC(=O)[C@H](CCCNC(=N)N)NC(=O)[C@H](CO)NC(=O)[C@H](CCC(=O)O)NC(=O)[C@H](CC(C)C)NC(=O)[C@H](Cc1ccc(O)cc1)NC(=O)[C@H](CCCCN)NC(=O)[C@H](CO)NC(=O)[C@H](CC(C)C)NC(=O)[C@H](CC(=O)O)NC(=O)[C@H](CO)NC(=O)[C@@H](NC(=O)[C@H](Cc1ccccc1)NC(=O)[C@@H](NC(=O)CNC(=O)[C@H](CCC(N)=O)NC(=O)C(C)(C)NC(=O)[C@@H](N)Cc1c[nH]cn1)[C@@H](C)O)[C@@H](C)O)C(C)C)C(=O)N[C@@H](CCCCNC(=O)COCCOCCNC(=O)COCCOCCNC(=O)CC[C@H](NC(=O)CC[C@H](NC(=O)CC[C@H](NC(=O)CCCCCCCCCCCCCCCCC(=O)O)C(=O)O)C(=O)O)C(=O)O)C(=O)N[C@H](C(N)=O)[C@@H](C)O, also called Chem. 3; Chem 3)
3	30	1.2	7.1	H[Aib]QGTFTSDLSKYLDVRRAQDFVQWLIK([γGlu-AEEA-AEEA-γGlu-γGlu-C18 diacid])T-NH2 (N-terminus assumed; SMILES CC[C@H](C)[C@H](NC(=O)[C@H](CC(C)C)NC(=O)[C@H](Cc1c[nH]c2ccccc12)NC(=O)[C@H](CCC(N)=O)NC(=O)[C@@H](NC(=O)[C@H](Cc1ccccc1)NC(=O)[C@H](CC(=O)O)NC(=O)[C@H](CCC(N)=O)NC(=O)[C@H](C)NC(=O)[C@H](CCCNC(=N)N)NC(=O)[C@H](CCCNC(=N)N)NC(=O)[C@@H](NC(=O)[C@H](CC(=O)O)NC(=O)[C@H](CC(C)C)NC(=O)[C@H](Cc1ccc(O)cc1)NC(=O)[C@H](CCCCN)NC(=O)[C@H](CO)NC(=O)[C@H](CC(C)C)NC(=O)[C@H](CC(=O)O)NC(=O)[C@H](CO)NC(=O)[C@@H](NC(=O)[C@H](Cc1ccccc1)NC(=O)[C@@H](NC(=O)CNC(=O)[C@H](CCC(N)=O)NC(=O)C(C)(C)NC(=O)[C@@H](N)Cc1c[nH]cn1)[C@@H](C)O)[C@@H](C)O)C(C)C)C(C)C)C(=O)N[C@@H](CCCCNC(=O)CC[C@H](NC(=O)COCCOCCNC(=O)COCCOCCNC(=O)CC[C@H](NC(=O)CC[C@H](NC(=O)CCCCCCCCCCCCCCCCC(=O)O)C(=O)O)C(=O)O)C(=O)O)C(=O)N[C@H](C(N)=O)[C@@H](C)O, also called Chem. 40; Chem 40)
